Data taken from paper PMC6702222, “Visualizing structural transitions of ligand-dependent gating of the TRPM2 channel” (Nature Communications, 2019).

Target: the molecule itself
Experiment: cryo-EM structure; TRPM2DR in digitonin, Ca2+-free buffer, incubated with 1 mM EDTA (ligand-free); refined with C4 (~4.3 A) and C2 (~4.5 A) symmetry

B1: Danio rerio (zebrafish) transient receptor potential melastatin 2 channel, full-length wild type (natural protein, UniProt A0A0R4IMY7 1-1470, looked up)
chain: MDEAALEPTLVQTLAVSTAKGGRYLSLSPSFQRCSLASWIKENIKKKECCFYVEDGREGICKCGYPKVQHCDEAIKPEDYMGEQWDKHRHVRETPTDAFGDISFGGLGQKTGKYVRVSSDTSCENLYQLMTEQWKLRSPNLLISVTGGAKNFYIKTHLKDKFRRGLIKVAQTTGAWILTGGTHAGVMKHVGMAVRDYTLSSGSMEGQIVVIGVAPWGVIHNRSTLIHPEGRFPAYYSLDEQGQGRLSCLDINHTHFLLVDDGTQGHYGVEIELRARLEKLISKLSLGNRESGVTIPVVCVVLDGGPGTLNTIYNSMLNHTPCVVLEGSGRLADVIAHVASVPVSKVTMALINRLLKRFFMQEYKNFTELQIIEWTKKIQDILRMPHLLTVFRIDEDKNYDVDVAILQALLKASRSDEHAGRHCWERQLELAVAWNRVDIAESEIFTEESQWTSSDLHPAMFSALVGDKPEFVRLLLENGVCVREFLEREETLCELYSHLPSCFFLRKLAKRVQGGKMRRGQEPLPGSRKVCLSHVSEEVRHLLGSFTQPLYIASRYKPTKDDVRLKVPSKGALDLPCSGEEWSADTVWDPGRDLFLWAVVQNNRELAEIGWEQCRDCIAAALAASKILRKLAQESGEDDSEEATEMLELANHYEKQAIGVFSECHSWDAQRAQKLLIRISPSWGRSTCLWLALEAHDKSFIAHSGVQALLTQIWCGELSVDNPHWKVLLCMIFFPLIYTGFLTFRRDEDIQRQAERTEQQKLAMESVFAGQSDGKIKRHLRGFSQKSELKPLNCSSRLMSFLKSPQVKFYWNIASYFGFLWLFAVVLMIDFQTSPSWRELLLYVWLTSLVCEEIRQLYHDFDGSGFRRKAKMYIKDLWNILDVLSIVLFIAGLICRLQASDTVFYIGKVILCIDFIIFCLRLMAIFSISRTLGPKIIIVRRMMLDLFFFMFLLSIWVVAYGVAKQGILIENEERLNWIIRGAVYEPYITIFGNFPTNIDNTLFDISSCSVNASDPLKPKCPMLNADNTPVFPEWLTIMMLCVYLLFANILLLNLLIAIFNYTFQEVQDNTDTIWKFQRYELIKEYHSRPALPPPFILLSHLILFIRGVFLRDLPQRHKNFRQELEQTEEEELLSWEAYMKDNYLASTRQDESQSVEHRIHDTAEKVGAMSELLEREQEMVSATMAKRLARLEEQVSESAKALRWIIDALKSQGCKSKVQPPLMRSKSSDRDDGDSSGQETDDEEAPHMFARQLQYPDSTVRRFPVPEEKVSWEVNFSPYQPPVYNQQDSSESDTSALDKHRNPGGRTGIRGKGALNTLGPNHILHPIFTRWRDAEHKVLEFLAVWEDAEKRWALLGGPAQPDEPLAQVLERILGKKLNEKTKTLLKAGEEVYKGYVDDSRNTDNAWVETSIITLHCDKNTPLMADLNHMVESSLSSHQPLQWREVSSDACRCSYQREALRQIAHHHNTYF
notes: TRPM2, zebrafish (Danio rerio), NCBI XP_009303266.1, full-length wild type from a codon-optimized synthetic gene; Homo-tetramer in all cryo-EM reconstructions; also called TRPM2DR; TRPM2; source: for the ADPR/Ca2+ sample reconstituted into amphipol PMAL-C8
stoichiometry N: 4
